Biological target: the molecule itself
Experiment: crystal structure; selenomethionine-labelled NMB1585, 9.7 mg/ml in 20 mM Tris pH 7.5, 200 mM NaCl, 1 mM TCEP; crystals from 0.1 M HEPES pH 7.5, 25% PEG 3350, 0.2 M ammonium chloride; space group P2(1), two subunits per asymmetric unit; 2.1 Å

B1: NMB1585, MarR-family transcription factor from Neisseria meningitidis (natural protein)
chain: MNQLDQLGTRINLICNVFDKWIGQQDLNYNLFAVLYTLATEGSRTQKHIGEKWSLPKQTVSGVCKTLAGQGLIEWQEGEQDRRKRLLSLTETGKAYAAPLTESAQEFSDKVFATFGDKRTTRLFADLDALAEVMEKTISENKK
modifications: selenomethionine-labelled (selenomethionine in place of methionine)
notes: NMB1585, MarR-family regulator, Neisseria meningitidis strain MC58; amplified from genomic DNA with primers that run from the ATG start codon to the stop codon; cloned into pDEST17 with an N-terminal His tag and a 3C protease cleavage site; also called meningococcal MarR; source: tag removed with 3C protease; not shown: His tag, N-terminal, cleaved
  stoichiometry N: 2
